Legend:
[1] = target: ^C38/C81/C96R1 (triple Cys mutant of the cytochrome cb562 variant RIDC1)
[2] = target: ^C38/C81/C96R1 (triple Cys mutant of the cytochrome cb562 variant RIDC1); assay: AUC
[3] = target: ^C38/C81/C96M1 (variant lacking the hydrophobic mutations) (UniProt P0ABE7)

| Substance | yield of the tetrameric species [1] | yield of the tetrameric species with 1.5-fold molar excess of Zn2+ [1] | stoichiometry N [2] | yield of the tetrameric species [3] |
| --- | --- | --- | --- | --- |
| ^C38/C81/C96R1 (triple Cys mutant of the cytochrome cb562 variant RIDC1) | 47% | 53% | 4 | – |
| ^C38/C81/C96M1 (variant lacking the hydrophobic mutations) (from UniProt P0ABE7 23-128) | – | – | – | 16% |

Source: PMC5085265
